In assay [1] the target is HLA-A*23:01. The assay can be described thus: IEDB peptide-MHC binding, purified MHC/competitive/radioactivity; filed as Kd, often an IC50 or EC50 that approximates it; ≥ and ≤ were set here for values at or beyond the usual limits of such assays.
Assay [2] has as its target HLA-A*24:02. The assay is described as above.
Assay [3] has as its target HLA-A*32:01. The assay is described as above.
For assay [4], the target named is HLA-B*40:01. The description is as above.
Assay [5] concerns the target HLA-A*30:01. Described as above.
In assay [6] the target is HLA-B*15:01. The assay is described as follows: IEDB peptide-MHC binding, purified MHC/direct/fluorescence; filed as Kd, often an IC50 or EC50 that approximates it; ≥ and ≤ were set here for values at or beyond the usual limits of such assays.
The target in assay [7] is HLA-A*11:01. The description is as above.
Assay [8] addresses HLA-A*31:01. The description is as above.
Assay [9] has as its target HLA-B*58:01. The assay is described as above.
For assay [10], the target named is HLA-A*02:01. The assay can be described thus: IEDB peptide-MHC binding, purified MHC/competitive/fluorescence; ≥ and ≤ were set here for values at or beyond the usual limits of such assays.
Assay [11] deals with HLA-B*53:01. The assay is described as follows: IEDB peptide-MHC binding, purified MHC/competitive/radioactivity; filed as Kd, often an IC50 or EC50 that approximates it; ≥ and ≤ were set here for values at or beyond the usual limits of such assays. The following applies: source organism: Dengue virus 1 Brazil/97-11/1997.
Assay [12] has as its target HLA-A*26:01. The assay can be described thus: IEDB peptide-MHC binding, purified MHC/direct/fluorescence; filed as Kd, often an IC50 or EC50 that approximates it; ≥ and ≤ were set here for values at or beyond the usual limits of such assays. The following applies: source organism: Influenza A virus (A/swine/Italy/1654-1/99(H1N2)).
For assay [13], the target named is HLA-A*69:01. The description is as above. Particulars: source organism: Rickettsia prowazekii.
Assay [14] deals with HLA-A*02:01. The assay is described as above. The following applies: source organism: Rickettsia prowazekii.
Assay [15] addresses HLA-B*40:01. Described as above. The following applies: source organism: Rickettsia prowazekii.
The target of assay [16] is HLA-A*03:01. The description is as above. Particulars: source organism: Rickettsia prowazekii.
Setting [17] is: source organism: Dengue virus 1 Brazil/97-11/1997.
Where [18] appears, read: source organism: Dengue virus 2 Jamaica/1409/1983.
[19] abbreviates: source organism: Vaccinia virus WR.
Setting [20] is: source organism: Dengue virus 3 Martinique/1243/1999.
Where [21] appears, read: source organism: Dengue virus 4 Philippines/H241/1956.
The mark [22] stands for this setting: source organism: Zaire ebolavirus.
Setting [23] is: source organism: Rickettsia prowazekii.
[24] abbreviates: source organism: Sudan ebolavirus.

In general, Kd refers to the constant that tells how readily two partners part at equilibrium. As a reminder, the IC50 is the concentration that inhibits the measured activity by half. Read a high IC50 as weaker potency in that assay.

As to GYFTQTAGPW, the values for the Kd in [1] (setting [17]) and in assay [2] (setting [17]) were 1220 nM and at least 70300 nM, respectively.
For the sequence KNFAGPVSQ, the equilibrium dissociation constant (Kd) in assay [3] (setting [18]) is at least 44900 nM.
With ITYWSRFTI, the Kd in assay [3] (setting [19]) was determined as 2.48 nM.
As to RQWFFDLPL, the figures for the dissociation constant (Kd) in assay [3] (setting [20]) and in assay [4] (setting [20]) were 1.17 nM and 42 nM, respectively.
For KTALLIVSG, in assay [3] (setting [20]), the Kd was 6830 nM.
Consider GTGNIGETL, for which the Kd in [3] (setting [18]) was found to be 8120 nM.
For DEAHFTDPSS, the dissociation constant Kd in assay [5] (setting [21]) amounted to 165 nM.
For the sequence STRVEMGEA, the dissociation constant (Kd) in assay [5] (setting [18]) came out at 13.9 nM.
For HTLESPVEF, the equilibrium dissociation constant (Kd) is 1440 nM in [6] (source organism: SARS-CoV1), at least 53900 nM in assay [7] (source organism: SARS-CoV1), 1400 nM in assay [8] (source organism: SARS-CoV1) and 98.1 nM in [9] (source organism: SARS-CoV1).
As for AGILKRWGTI, the Kd in [3] (setting [18]) was 8820 nM.
As for TMLSIILVI, the Kd in assay [3] (setting [19]) came to 15.6 nM.
As to HLSNYIVSI, the equilibrium dissociation constant (Kd) in assay [3] (setting [19]) worked out at 0.986 nM.
Turning to RLKSAVCYK, in [5] (setting [19]), the Kd is 0.175 nM.
IKHVGLITC gave an IC50 in assay [10] (setting [19]) of at least 622000 nM.
On to VESWEEVPYL, for which, in assay [4] (setting [18]), the Kd is 41 nM.
Regarding KEENLVRSM, in assay [4] (setting [17]), the dissociation constant Kd came to 1130 nM.
In the case of RQWFFDLPLP, the equilibrium dissociation constant (Kd) in [5] (setting [20]) came out at 10800 nM.
Consider PYMPSVVETL, for which the equilibrium dissociation constant (Kd) in [1] (setting [17]) is 32.2 nM; in [2] (setting [17]), 31.9 nM.
Consider FGIFTTNIW, for which, in assay [11], the equilibrium dissociation constant (Kd) turned out to be 168 nM.
Regarding SGQSPARTS, in [10] (setting [22]), the IC50 was at least 234000 nM.
In the case of ETFKVIGGW, the dissociation constant (Kd) in assay [12] worked out at 182 nM.
In the case of HMILVVVTT, the Kd in assay [3] (setting [21]) was at least 77800 nM.
Turning to GAKIGCINV, in [5] (setting [19]), the dissociation constant (Kd) amounted to 9.11 nM.
Consider GRLITANPVV, for which the dissociation constant Kd in [5] (setting [20]) was found to be 1430 nM.
Consider NYRPGYFTQ, for which, in assay [2] (setting [17]), the Kd was at least 44400 nM.
Turning to KIFEYGFTF, the Kd in assay [6] (setting [23]) is 229 nM; in assay [7] (setting [23]), 377 nM; in assay [13], 4280 nM; in [14] it was 106 nM; in assay [15] it was 4350 nM; in [8] (setting [23]), 196 nM. Further, the Kd in assay [16] came out at 6020 nM; in assay [9] (setting [23]), 255 nM.
With DTQGSNWIQK, the Kd in [3] (setting [18]) came out at 267 nM.
As to GRTLRVLKMV, in assay [5] (setting [17]), the equilibrium dissociation constant (Kd) worked out at 634 nM.
For the sequence VFGAIYGAAF, the dissociation constant (Kd) in assay [1] (setting [18]) was 4.48 nM; in assay [2] (setting [18]), 323 nM.
For MWKQITPEL, the dissociation constant Kd in [1] (setting [18]) was found to be 170 nM.
With HSRASPRIG, in assay [5] (setting [19]), the Kd came out at 0.931 nM.
Take TTFGRIGVK: in [7] (source organism: Mycobacterium tuberculosis), the Kd amounted to 2 nM.
In the case of DARTYSDPLA, in assay [5] (setting [17]), the dissociation constant Kd is 924 nM.
With KVRPTFAAG, the equilibrium dissociation constant (Kd) in assay [5] (setting [18]) turned out to be 4.4 nM.
Take RSGAYVSAI: in [3] (setting [18]), the Kd stood at 378 nM.
In the case of QWMTTEDMLT, in assay [2] (setting [20]), the dissociation constant (Kd) is 6100 nM.
Consider EVKTCTWPKS, for which, in [3] (setting [20]), the equilibrium dissociation constant (Kd) was at least 48400 nM.
For the sequence IGESSSNPTI, the Kd in [5] (setting [21]) worked out at 7340 nM.
Turning to TWAYHGSYET, the Kd in [2] (setting [18]) turned out to be 2160 nM.
Turning to ISGVFPVSI, the Kd in assay [3] (setting [18]) worked out at 1120 nM.
Regarding GSTLAGVNV, the concentration for half-maximal inhibition (IC50) in assay [10] (setting [22]) is at least 95000 nM.
With NLHYWTTQD, the IC50 in assay [10] (setting [22]) was at least 124000 nM.
With HGLFPQLSA, the IC50 in assay [10] (setting [22]) was 47900 nM. That is a double-digit micromolar value.
Turning to TEHGTIATI, the Kd in [4] (setting [17]) stood at 80 nM.
Consider LLIHFLLSL, for which the dissociation constant Kd in assay [3] (setting [19]) is at least 52800 nM.
Take NSTLEVTEI: the concentration for half-maximal inhibition (IC50) in [10] (setting [24]) is at least 97400 nM.
In the case of GEGVLSKADL, the Kd in assay [4] (setting [20]) turned out to be 42.4 nM.
As to LEHGGCVTTM, the dissociation constant Kd in assay [4] (setting [20]) is 9.41 nM.
For VLYNNVVEF, the Kd in assay [3] (setting [19]) was determined as 1.45 nM.
For the sequence KIKSPIYYK, the Kd in assay [5] (source organism: Vaccinia virus Copenhagen) worked out at 0.932 nM.
Regarding GLITSTVTG, in [10] (setting [24]), the IC50 was 12400 nM.

(Values after the Immune Epitope Database (IEDB).)
